The values below come from publication PMC7808953 (Redox Biology, 2020).

This data set deals with the molecule itself. In words: native gel or EMSA. (Mobility shift assays separate free from complexed probe on a gel.)

B1: hypochlorite-treated α2-macroglobulin (natural protein)
chain: SVSGKPQYMVLVPSLLHTETTEKGCVLLSYLNETVTVSASLESVRGNRSLFTDLEAENDVLHCVAFAVPKSSSNEEVMFLTVQVKGPTQEFKKRTTVMVKNEDSLVFVQTDKSIYKPGQTVKFRVVSMDENFHPLNELIPLVYIQDPKGNRIAQWQSFQLEGGLKQFSFPLSSEPFQGSYKVVVQKKSGGRTEHPFTVEEFVLPKFEVQVTVPKIITILEEEMNVSVCGLYTYGKPVPGHVTVSICRKYSDASDCHGEDSQAFCEKFSGQLNSHGCFYQQVKTKVFQLKRKEYEMKLHTEAQIQEEGTVVELTGRQSSEITRTITKLSFVKVDSHFRQGIPFFGQVRLVDGKGVPIPNKVIFIRGNEANYYSNATTDEHGLVQFSINTTNVMGTSLTVRVNYKDRSPCYGYQWVSEEHEEAHHTAYLVFSPSKSFVHLEPMSHELPCGHTQTVQAHYILNGGTLLGLKKLSFYYLIMAKGGIVRTGTHGLLVKQEDMKGHFSISIPVKSDIAPVARLLIYAVLPTGDVIGDSAKYDVENCLANKVDLSFSPSQSLPASHAHLRVTAAPQSVCALRAVDQSVLLMKPDAELSASSVYNLLPEKDLTGFPGPLNDQDNEDCINRHNVYINGITYTPVSSTNEKDMYSFLEDMGLKAFTNSKIRKPKMCPQLQQYEMHGPEGLRVGFYESDVMGRGHARLVHVEEPHTETVRKYFPETWIWDLVVVNSAGVAEVGVTVPDTITEWKAGAFCLSEDAGLGISSTASLRAFQPFFVELTMPYSVIRGEAFTLKATVLNYLPKCIRVSVQLEASPAFLAVPVEKEQAPHCICANGRQTVSWAVTPKSLGNVNFTVSAEALESQELCGTEVPSVPEHGRKDTVIKPLLVEPEGLEKETTFNSLLCPSGGEVSEELSLKLPPNVVEESARASVSVLGDILGSAMQNTQNLLQMPYGCGEQNMVLFAPNIYVLDYLNETQQLTPEIKSKAIGYLNTGYQRQLNYKHYDGSYSTFGERYGRNQGNTWLTAFVLKTFAQARAYIFIDEAHITQALIWLSQRQKDNGCFRSSGSLLNNAIKGGVEDEVTLSAYITIALLEIPLTVTHPVVRNALFCLESAWKTAQEGDHGSHVYTKALLAYAFALAGNQDKRKEVLKSLNEEAVKKDNSVHWERPQKPKAPVGHFYEPQAPSAEVEMTSYVLLAYLTAQPAPTSEDLTSATNIVKWITKQQNAQGGFSSTQDTVVALHALSKYGAATFTRTGKAAQVTIQSSGTFSSKFQVDNNNRLLLQQVSLPELPGEYSMKVTGEGCVYLQTSLKYNILPEKEEFPFALGVQTLPQTCDEPKAHTSFQISLSVSYTGSRSASNMAIVDVKMVSGFIPLKPTVKMLERSNHVSRTEVSSNHVLIYLDKVSNQTLSLFFTVLQDVPVRDLKPAIVKVYDYYETDEFAIAEYNAPCSKDLGNA
modifications: modified by hypochlorite (NaOCl); residues not given
For orientation: stoichiometry N means a count of units in the complex or per binding partner. Regarding B1, the “stoichiometry N” value is 2.
